# Measured values reported in publication PMC8318587, “Structure-guided microbial targeting of antistaphylococcal prodrugs” (eLife, 2021).
# How the values were obtained:
# Assay in all cases: Esterase substrate specificity, fluorogenic SAR library kinetics
# Assay type in all cases: biochemical, Staphylococcus aureus
# Settings in all cases: other: SaGloB, fluorogenic ester substrate; pH 7.5; 37.0 °C
# [1] = substrate: CC(C)CCC(=O)OCOc1ccc2c(c1)Oc1cc(OCOC(=O)CCC(C)C)ccc1C21OC(=O)c2ccccc21
# Description: (§1) Kinetic measurements were performed according to [White et al., 2018] with minor variation. Lyophilized human and mouse sera were resuspended according to manufacturer instructions in highly pure, filtered water at protein concentrations of 85 mg/mL and 70 mg/mL, respectively. One milliliter of resuspended serum was added to a 24 mL mastermix for a final concentration of 31.25 mM Tris pH 7.5, 312.5 mM NaCl, 1.25 mM MgCl2, 12.5% glycerol, and 3.4 mg/mL or 2.8 mg/mL protein for human and mouse serum, respectively. For purified proteins, 5 mL of a 75 µg/mL stock was added to yield a 20 mL mastermix containing 31.25 mM Tris pH 7.5, 312.5 mM NaCl, 1.25 mM MgCl2, 12.5% glycerol, and 18.75 µg/mL protein. Mastermix was stored on ice when not in use. Twenty microliters of mastermix was transferred to a black, 96-well half area microplate (Corning, CLS3993) and prewarmed at 37°C. Fluorogenic substrates were prepared as 10 mM stock solutions in 100% DMSO and were diluted in water to a starting concentration of 500 µM. Enzyme catalyzed substrate hydrolysis was initiated by addition of 5 µL substrate dilution in technical duplicate to the prewarmed serum or protein solution. Final assay concentrations were as follows: 25 mM Tris pH 7.5, 250 mM NaCl, 1 mM MgCl2, 10% glycerol, and protein at a concentration of 2.72 mg/mL (human serum), 2.24 mg/mL (mouse serum), or 15 µg/mL (FrmB, GloB). The resulting change in fluorescence (λex = 485 nm, λem = 520 nm) was followed for 15 min at 37°C, collecting data every 30 s on a FLUOstar Omega microplate reader (BMG Labtech). Fluorescence measurements were converted to molar concentrations using a fluorescein standard curve (2.5 nmol–0.6 pmol). The initial rates of reaction were measured three independent times with two technical replicates per measurement and fit to a line using GraphPad Prism (GraphPad Software, La Jolla, CA). Initial rates of reaction were plotted versus the concentration of substrate and fit to a standard Michaelis–Menten equation (v = Vmax[S]/(Km + [S])), yielding estimates of Vmax and Km. Values for kcat and kcat/Km were calculated based on amount of enzyme added when purified enzymes were used.
# [2] = substrate: CC(C)SCC(=O)OCOc1ccc2c(c1)Oc1cc(OCOC(=O)CSC(C)C)ccc1C21OC(=O)c2ccccc21
# Description: as §1
# [3] = substrate: CCC(OC)C(=O)OCOc1ccc2c(c1)Oc1cc(OCOC(=O)C(CC)OC)ccc1C21OC(=O)c2ccccc21
# Description: as §1
# [4] = substrate: CCCC(C)C(=O)OCOc1ccc2c(c1)Oc1cc(OCOC(=O)C(C)CCC)ccc1C21OC(=O)c2ccccc21
# Description: as §1
# [5] = substrate: CCCOCC(=O)OCOc1ccc2c(c1)Oc1cc(OCOC(=O)COCCC)ccc1C21OC(=O)c2ccccc21
# Description: as §1
# [6] = substrate: CCOCC(=O)OCOc1ccc2c(c1)Oc1cc(OCOC(=O)COCC)ccc1C21OC(=O)c2ccccc21
# Description: as §1
# [7] = substrate: CCOCCC(=O)OCOc1ccc2c(c1)Oc1cc(OCOC(=O)CCOCC)ccc1C21OC(=O)c2ccccc21
# Description: as §1
# [8] = substrate: CCSC(C)C(=O)OCOc1ccc2c(c1)Oc1cc(OCOC(=O)C(C)SCC)ccc1C21OC(=O)c2ccccc21
# Description: as §1
# [9] = substrate: CCSCCC(=O)OCOc1ccc2c(c1)Oc1cc(OCOC(=O)CCSCC)ccc1C21OC(=O)c2ccccc21
# Description: as §1
# [10] = substrate: COC(C)C(=O)OCOc1ccc2c(c1)Oc1cc(OCOC(=O)C(C)OC)ccc1C21OC(=O)c2ccccc21
# Description: as §1
# [11] = substrate: COCC(=O)OCOc1ccc2c(c1)Oc1cc(OCOC(=O)COC)ccc1C21OC(=O)c2ccccc21
# Description: as §1
# [12] = substrate: CSC(C)C(=O)OCOc1ccc2c(c1)Oc1cc(OCOC(=O)C(C)SC)ccc1C21OC(=O)c2ccccc21
# Description: as §1
# [13] = substrate: CSCC(=O)OCOc1ccc2c(c1)Oc1cc(OCOC(=O)CSC)ccc1C21OC(=O)c2ccccc21
# Description: as §1
protein,measurement,setting,value
SaGloB (Staphylococcus aureus subsp. aureus str. Newman) (protein) MRISSLTLGLVDTNTYFIENDKAVILIDPSGESEKIIKKLNQINKPLKAILLTHAHFDHIGAVDDIVDRFDVPVYMHEAEFDFLKDPVKNGADKFKQYGLPIITSKVTPEKLNEGSTEIEGFKFNVLHTPGHSPGSLTYVFDEFAVVGDTLFNNGIGRTDLYKGDYETLVDSIQDKIFELEGDLPLFPGHGPYTTVDDEQLNPFLHG,Km,[1],48.00 µM
same,Vmax,[1],0.444 pmol*min-1*μg protein-1
same,kcat,[1],0.0663 10-3 s-1
same,kcat/Km,[1],1.38 M⁻¹ s⁻¹
same,Km,[2],65.8 µM
same,Vmax,[2],4.19 pmol*min-1*μg protein-1
same,kcat,[2],0.627 10-3 s-1
same,kcat/Km,[2],9.53 M⁻¹ s⁻¹
same,Km,[3],55.5 µM
same,Vmax,[3],2.54 pmol*min-1*μg protein-1
same,kcat,[3],0.380 10-3 s-1
same,kcat/Km,[3],6.84 M⁻¹ s⁻¹
same,Km,[4],84.89 µM
same,Vmax,[4],0.351 pmol*min-1*μg protein-1
same,kcat,[4],0.0524 10-3 s-1
same,kcat/Km,[4],0.618 M⁻¹ s⁻¹
same,Km,[5],8.41 µM
same,Vmax,[5],4.21 pmol*min-1*μg protein-1
same,kcat,[5],0.630 10-3 s-1
same,kcat/Km,[5],74.8 M⁻¹ s⁻¹
same,Km,[6],42.0 µM
same,Vmax,[6],46.4 pmol*min-1*μg protein-1
same,kcat,[6],6.93 10-3 s-1
same,kcat/Km,[6],165 M⁻¹ s⁻¹
same,Km,[7],21.2 µM
same,Vmax,[7],0.731 pmol*min-1*μg protein-1
same,kcat,[7],0.109 10-3 s-1
same,kcat/Km,[7],5.15 M⁻¹ s⁻¹
same,Km,[8],79.8 µM
same,Vmax,[8],1.02 pmol*min-1*μg protein-1
same,kcat,[8],0.153 10-3 s-1
same,kcat/Km,[8],1.92 M⁻¹ s⁻¹
same,Km,[9],31.7 µM
same,Vmax,[9],0.18 pmol*min-1*μg protein-1
same,kcat,[9],0.0266 10-3 s-1
same,kcat/Km,[9],0.840 M⁻¹ s⁻¹
same,Km,[10],20.5 µM
same,Vmax,[10],23.1 pmol*min-1*μg protein-1
same,kcat,[10],3.45 10-3 s-1
same,kcat/Km,[10],168 M⁻¹ s⁻¹
same,Km,[11],73.5 µM
same,Vmax,[11],217 pmol*min-1*μg protein-1
same,kcat,[11],32.5 10-3 s-1
same,kcat/Km,[11],442 M⁻¹ s⁻¹
same,Km,[12],49.5 µM
same,Vmax,[12],0.722 pmol*min-1*μg protein-1
same,kcat,[12],0.108 10-3 s-1
same,kcat/Km,[12],2.18 M⁻¹ s⁻¹
same,Km,[13],32.49 µM
same,Vmax,[13],14.9 pmol*min-1*μg protein-1
same,kcat,[13],2.22 10-3 s-1
same,kcat/Km,[13],68.4 M⁻¹ s⁻¹
